Experimental findings from publication PMC3082577 are described below.

Holding throughout (details): glycan lost; control: wild type
Data set [1] can be described thus: Western blot of purified Kv3.1. (A western blot detects proteins with antibodies after separation by electrophoresis.)
Data set [2] in a line: train of five +40 mV pulses, whole cell.
Data set [3] can be described thus: whole cell patch clamp, 2 s pulse, +40 mV.
A short description of data set [4]: whole cell patch clamp, inactivating current type. Background: The patch-clamp technique gives a direct electrical read-out from membranes.
Data set [5] can be described thus: whole cell patch clamp, noninactivating current type.
A short description of data set [6]: whole cell patch clamp, current pattern classification.
Data set [7] is described as follows: whole cell patch clamp, inactivating current type, +40 mV.
A short description of data set [8]: whole cell patch clamp, noninactivating current type, +40 mV.

B1: Kv3.1: N220Q/N229Q (protein)
parent chain: MGQGDESERIVINVGGTRHQTYRSTLRTLPGTRLAWLAEPDAHSHFDYDPRADEFFFDRHPGVFAHILNYYRTGKLHCPADVCGPLYEEELAFWGIDETDVEPCCWMTYRQHRDAEEALDSFGGAPLDNSADDADADGPGDSGDGEDELEMTKRLALSDSPDGRPGGFWRRWQPRIWALFEDPYSSRYARYVAFASLFFILVSITTFCLETHERFNPIVNKTEIENVRNGTQVRYYREAETEAFLTYIEGVCVVWFTFEFLMRVVFCPNKVEFIKNSLNIIDFVAILPFYLEVGLSGLSSKAAKDVLGFLRVVRFVRILRIFKLTRHFVGLRVLGHTLRASTNEFLLLIIFLALGVLIFATMIYYAERIGAQPNDPSASEHTHFKNIPIGFWWAVVTMTTLGYGDMYPQTWSGMLVGALCALAGVLTIAMPVPVIVNNFGMYYSLAMAKQKLPKKKKKHIPRPPQLGSPNYCKSVVNSPHHSTQSDTCPLAQEEILEINRADSKLNGEVAKAALANEDCPHIDQALTPDEGLPFTRSGTRERYGPCFLLSTGEYACPPGGGMRKDLCKESPVIAKYMPTEAVRVT
In the case of B1, the expression_or_secretion result in data set [1] was “no change”. Besides, in data set [2], the “other: peak current remaining after repetitive depolarization” value is reported as “decreases”. The “other: channel current remaining after 2 s pulse (inactivation), other: % current remaining” value (“other … % current remaining” below) in data set [3] was “increases, 62.3±3.1 vs 51.0±2.3”. In data set [4], the “other: channel current deactivation time constant, other: τoff” value (shortened to “other … τoff”) is on record as “increases, 6.0±0.3 vs 4.1±0.2”; the “other: channel current, G-V slope factor, other: dV” value (“other … G-V slope factor, other: dV” for short) is given as “no change, 9.6±0.3 vs 10.5±0.5”; the “other: channel current, voltage of half activation, other: V0.5” value (“other: channel current, voltage” for short) was “no change, 8.1±0.6 vs 10.1±0.7”. Moreover, in data set [5], the “other … τoff” value is “increases, 5.6±0.2 vs 3.6±0.1”; the “other … G-V slope factor, other: dV” value is “no change, 18.7±0.5 vs 22.6±0.4”; the “other: channel current, voltage” value is listed as “no change, 22.3±0.4 vs 28.1±0.7”. Besides, the “other: share of inactivating whole cell current type, other: % inactivating current type” value (“other: share … % inactivating current type” for short) in data set [6] is given as “increases, 68% vs 36%”. For the same protein, in data set [7], the “other: channel current activation time constant, other: τon” value (shortened to “other … τon”) is “increases, 7.5±0.8 vs 4.0±0.3” and the “other: channel current rise time, other: rise time” value (from here on “other: channel current rise time”) is “increases, 15.9±1.5 vs 8.6±0.5”. In data set [8], the “other … τon” value is on record as “increases, 7.4±1.2 vs 1.6±0.2” and the “other: channel current rise time” value was “increases, 10.2±1.5 vs 3.5±0.2”.

B2: Kv3.1: N220Q (protein)
parent chain: MGQGDESERIVINVGGTRHQTYRSTLRTLPGTRLAWLAEPDAHSHFDYDPRADEFFFDRHPGVFAHILNYYRTGKLHCPADVCGPLYEEELAFWGIDETDVEPCCWMTYRQHRDAEEALDSFGGAPLDNSADDADADGPGDSGDGEDELEMTKRLALSDSPDGRPGGFWRRWQPRIWALFEDPYSSRYARYVAFASLFFILVSITTFCLETHERFNPIVNKTEIENVRNGTQVRYYREAETEAFLTYIEGVCVVWFTFEFLMRVVFCPNKVEFIKNSLNIIDFVAILPFYLEVGLSGLSSKAAKDVLGFLRVVRFVRILRIFKLTRHFVGLRVLGHTLRASTNEFLLLIIFLALGVLIFATMIYYAERIGAQPNDPSASEHTHFKNIPIGFWWAVVTMTTLGYGDMYPQTWSGMLVGALCALAGVLTIAMPVPVIVNNFGMYYSLAMAKQKLPKKKKKHIPRPPQLGSPNYCKSVVNSPHHSTQSDTCPLAQEEILEINRADSKLNGEVAKAALANEDCPHIDQALTPDEGLPFTRSGTRERYGPCFLLSTGEYACPPGGGMRKDLCKESPVIAKYMPTEAVRVT
Take B2: in data set [1], the expression_or_secretion result is recorded as “no change”. Further, the “other … % current remaining” value in data set [3] is “increases, 60.2±2.7 vs 51.0±2.3”. In data set [4], the “other … τoff” value is listed as “no change, 4.7±0.4 vs 4.1±0.2”; the “other … G-V slope factor, other: dV” value is “no change, 9.9±0.4 vs 10.5±0.5”; the “other: channel current, voltage” value is recorded as “no change, 9.2±0.8 vs 10.1±0.7”. Further, in data set [5], the “other … τoff” value is “no change, 4.0±0.3 vs 3.6±0.1”; the “other … G-V slope factor, other: dV” value is given as “no change, 19.8±0.6 vs 22.6±0.4”; the “other: channel current, voltage” value is “no change, 30.7±0.6 vs 28.1±0.7”. Also, the “other: share … % inactivating current type” value in data set [6] is on record as “increases, 65% vs 36%”. In data set [7], the “other … τon” value is on record as “no change, 5.3±1.0 vs 4.0±0.3” and the “other: channel current rise time” value is given as “increases, 10.6±0.9 vs 8.6±0.5”. In data set [8], the “other … τon” value was “no change, 1.4±0.4 vs 1.6±0.2” and the “other: channel current rise time” value is recorded as “no change, 3.2±0.4 vs 3.5±0.2”.

B3: Kv3.1: N229Q (protein)
parent chain: MGQGDESERIVINVGGTRHQTYRSTLRTLPGTRLAWLAEPDAHSHFDYDPRADEFFFDRHPGVFAHILNYYRTGKLHCPADVCGPLYEEELAFWGIDETDVEPCCWMTYRQHRDAEEALDSFGGAPLDNSADDADADGPGDSGDGEDELEMTKRLALSDSPDGRPGGFWRRWQPRIWALFEDPYSSRYARYVAFASLFFILVSITTFCLETHERFNPIVNKTEIENVRNGTQVRYYREAETEAFLTYIEGVCVVWFTFEFLMRVVFCPNKVEFIKNSLNIIDFVAILPFYLEVGLSGLSSKAAKDVLGFLRVVRFVRILRIFKLTRHFVGLRVLGHTLRASTNEFLLLIIFLALGVLIFATMIYYAERIGAQPNDPSASEHTHFKNIPIGFWWAVVTMTTLGYGDMYPQTWSGMLVGALCALAGVLTIAMPVPVIVNNFGMYYSLAMAKQKLPKKKKKHIPRPPQLGSPNYCKSVVNSPHHSTQSDTCPLAQEEILEINRADSKLNGEVAKAALANEDCPHIDQALTPDEGLPFTRSGTRERYGPCFLLSTGEYACPPGGGMRKDLCKESPVIAKYMPTEAVRVT
In the case of B3, the expression_or_secretion result in data set [1] was “no change”. Also, the “other … % current remaining” value in data set [3] was “increases, 64.8±4.1 vs 51.0±2.3”. In data set [4], the “other … τoff” value is “increases, 5.1±0.2 vs 4.1±0.2”; the “other … G-V slope factor, other: dV” value is on record as “no change, 10.8±0.7 vs 10.5±0.5”; the “other: channel current, voltage” value is listed as “no change, 13.1±0.8 vs 10.1±0.7”. Moreover, in data set [5], the “other … τoff” value is given as “no change, 3.9±0.2 vs 3.6±0.1”; the “other … G-V slope factor, other: dV” value is “no change, 24.3±0.6 vs 22.6±0.4”; the “other: channel current, voltage” value is recorded as “no change, 27.5±0.5 vs 28.1±0.7”. Moreover, the “other: share … % inactivating current type” value in data set [6] is recorded as “no change, 29% vs 36%”. For the same protein, in data set [7], the “other … τon” value was “increases, 6.6±0.9 vs 4.0±0.3” and the “other: channel current rise time” value is on record as “increases, 12.7±1.6 vs 8.6±0.5”. In data set [8], the “other … τon” value was “no change, 1.2±0.1 vs 1.6±0.2” and the “other: channel current rise time” value is given as “no change, 3.1±0.1 vs 3.5±0.2”.
